Stoichiometry N data for one substance are collected here from paper PMC10248529.

The target in assay [1] is HAx3-tagged Cho1 (phosphatidylserine synthase from Candida albicans) (Candida albicans). Description: native gel or EMSA; BN-PAGE and anti-HA Western blot of Cho1-HAx3 pulled down with anti-HA beads and eluted harshly: 50 mM NaOH + 0.05% digitonin, then 1 M Tris pH 8.5. In general terms: A gel shift assay detects complexes by their altered migration in electrophoresis.
Assay [2] has the same target. In words: native gel or EMSA; BN-PAGE and anti-HA Western blot of SMA2000-solubilised membrane fractions (SMALPs), 1-4% SMA2000, 30 or 60 min, 37 °C.

Consider “HAx3-tagged Cho1 (phosphatidylserine synthase from Candida albicans) (from UniProt A0A1D8PF32 1-273) (enzyme)”, for which the stoichiometry N in assay [1] and in assay [2] was 2 each time.

In general, stoichiometry N refers to a count of units in the complex or per binding partner.
